Reference: IntAct's records for PubMed 22653441

B1: Serine/threonine-protein kinase PAK 4 (Homo sapiens), O96013 (parent)
chain: MFGKRKKRVEISAPSNFEHRVHTGFDQHEQKFTGLPRQWQSLIEESARRPKPLVDPACITSIQPGAPKTIVRGSKGAKDGALTLLLDEFENMSVTRSNSLRRDSPPPPARARQENGMPEEPATTARGGPGKAGSRGRFAGHSEAGGGSGDRRRAGPEKRPKSSREGSGGPQESSRDKRPLSGPDVGTPQPAGLASGAKLAAGRPFNTYPRADTDHPSRGAQGEPHDVAPNGPSAGGLAIPQSSSSSSRPPTRARGAPSPGVLGPHASEPQLAPPACTPAAPAVPGPPGPRSPQREPQRVSHEQFRAALQLVVDPGDPRSYLDNFIKIGEGSTGIVCIATVRSSGKLVAVKKMDLRKQQRRELLFNEVVIMRDYQHENVVEMYNSYLVGDELWVVMEFLEGGALTDIVTHTRMNEEQIAAVCLAVLQALSVLHAQGVIHRDIKSDSILLTHDGRVKLSDFGFCAQVSKEVPRRKSLVGTPYWMAPELISRLPYGPEVDIWSLGIMVIEMVDGEPPYFNEPPLKAMKMIRDNLPPRLKNLHKVSPSLKGFLDRLLVRDPAQRATAAELLKHPFLAKAGPPASIVPLMRQNRTR

Variants of: B1
Conditions: with cdc42_human CDC42, P60953
Sequence of cdc42_human CDC42, P60953 (P60953 whole entry, looked up): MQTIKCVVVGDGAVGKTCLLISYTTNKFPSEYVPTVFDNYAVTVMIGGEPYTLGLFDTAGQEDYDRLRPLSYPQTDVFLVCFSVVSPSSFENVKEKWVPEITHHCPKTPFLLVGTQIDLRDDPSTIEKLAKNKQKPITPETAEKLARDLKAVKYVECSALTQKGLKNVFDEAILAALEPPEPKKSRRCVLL

| Variant | effect of a mutation on the interaction |
| --- | --- |
| R48E | disrupting interaction |
| R49E | disrupting interaction |
| T60E | disrupting interaction |
